B1: MMP1 (parent)
chain: FVRGDHRDNSPFDGPGGNLAHAFQ

Variants of: B1
Assay: protein stability index of a GFP-peptide fusion (GPS, HEK-293T) (PSI 1-6); higher = more stable
Conditions: c terminus: a fixed tail appended
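Further: lentivirally expressed fusions sorted by FACS into six bins by GFP to DsRed ratio, PSI derived from sequencing read proportions per bin multiplied by bin number.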

Question: For FVREDHRDNSPFDGPGGNLAHAFQ [G4E], which protein stability index is on record?
Answer: 1.76

Question: Which protein stability index does the source give for FVRLDHRDNSPFDGPGGNLAHAFQ [G4L] here?
Answer: 1.68

Question: For FVRVDHRDNSPFDGPGGNLAHAFQ [G4V], which protein stability index is on record?
Answer: 1.94

Question: Which protein stability index does the source give for FVRNDHRDNSPFDGPGGNLAHAFQ [G4N] here?
Answer: 2.04

Question: With FVRQDHRDNSPFDGPGGNLAHAFQ [G4Q] as the variant, how does the protein stability index read?
Answer: 2.42

Question: For FVRDDHRDNSPFDGPGGNLAHAFQ [G4D], which protein stability index is on record?
Answer: 3.02

Question: With FVRWDHRDNSPFDGPGGNLAHAFQ [G4W] as the variant, how does the protein stability index read?
Answer: 1.94

Question: For FVRSDHRDNSPFDGPGGNLAHAFQ [G4S], which protein stability index is on record?
Answer: 2.41

Question: Which protein stability index does the source give for FVRPDHRDNSPFDGPGGNLAHAFQ [G4P] here?
Answer: 1.73

Question: For FVRADHRDNSPFDGPGGNLAHAFQ [G4A], which protein stability index is on record?
Answer: 2

Question: With FVRGDHRDNSPFDGPGGFLAHAFQ [N18F] as the variant, how does the protein stability index read?
Answer: 4.34

Question: For FVRGDHRDNSPFDGPGGMLAHAFQ [N18M], which protein stability index is on record?
Answer: 1.99

Question: With FVRGDHRDNSPFDGPGGVLAHAFQ [N18V] as the variant, how does the protein stability index read?
Answer: 2.14

Question: Which protein stability index does the source give for FVRGDHRDNSPFDGPGGQLAHAFQ [N18Q] here?
Answer: 2.27

Question: Which protein stability index does the source give for FVRGDHRDNSPFDGPGGDLAHAFQ [N18D] here?
Answer: 1.5

Question: With FVRGDHRDNSPFDGPGGYLAHAFQ [N18Y] as the variant, how does the protein stability index read?
Answer: 1.7

Question: Which protein stability index does the source give for FVRGDHRDNSPFDGPGGRLAHAFQ [N18R] here?
Answer: 3.01

Question: With FVRGDHRDNSPFDGPGINLAHAFQ [G17I] as the variant, how does the protein stability index read?
Answer: 2.43

Question: For FVRGDHRDNSPFDGPGANLAHAFQ [G17A], which protein stability index is on record?
Answer: 1.58

Question: For FVRGDHRDNSPFDGPGVNLAHAFQ [G17V], which protein stability index is on record?
Answer: 2.43

Question: Which protein stability index does the source give for FVRGDHRDNSPFDGPGPNLAHAFQ [G17P] here?
Answer: 1.37

Question: Which protein stability index does the source give for FVRGDHRDNSPFDGPGHNLAHAFQ [G17H] here?
Answer: 1.9

Question: With FVRGDHRDNSPFDGPGLNLAHAFQ [G17L] as the variant, how does the protein stability index read?
Answer: 2.29

Question: With FVRGDHRDNSPFDGPGKNLAHAFQ [G17K] as the variant, how does the protein stability index read?
Answer: 1.92

Question: With FVRGDHRDNSPFDGPGWNLAHAFQ [G17W] as the variant, how does the protein stability index read?
Answer: 2.48

Question: With FVRGGHRDNSPFDGPGGNLAHAFQ [D5G] as the variant, how does the protein stability index read?
Answer: 1.34

Question: For FVRGAHRDNSPFDGPGGNLAHAFQ [D5A], which protein stability index is on record?
Answer: 2.15

Question: With FVRGSHRDNSPFDGPGGNLAHAFQ [D5S] as the variant, how does the protein stability index read?
Answer: 2.75

Question: For FVRGEHRDNSPFDGPGGNLAHAFQ [D5E], which protein stability index is on record?
Answer: 1.5

Question: For FVRGFHRDNSPFDGPGGNLAHAFQ [D5F], which protein stability index is on record?
Answer: 2.45

Question: For FVRGDHRDNSTFDGPGGNLAHAFQ [P11T], which protein stability index is on record?
Answer: 1.8

Question: Which protein stability index does the source give for FVRGDHRDNSLFDGPGGNLAHAFQ [P11L] here?
Answer: 1.34

Question: For FVRGDHRDNSVFDGPGGNLAHAFQ [P11V], which protein stability index is on record?
Answer: 2.06

Question: Which protein stability index does the source give for FVRGDHRDNSYFDGPGGNLAHAFQ [P11Y] here?
Answer: 2.04

Question: Which protein stability index does the source give for FVRGDHRDNSSFDGPGGNLAHAFQ [P11S] here?
Answer: 2.91

Question: For FVRGDHRDNSQFDGPGGNLAHAFQ [P11Q], which protein stability index is on record?
Answer: 2.02

Question: Which protein stability index does the source give for FVRGDHRDNSWFDGPGGNLAHAFQ [P11W] here?
Answer: 1.84

Question: For FVRGDHRDNTPFDGPGGNLAHAFQ [S10T], which protein stability index is on record?
Answer: 2.13

Question: Which protein stability index does the source give for FVRGDHRDNIPFDGPGGNLAHAFQ [S10I] here?
Answer: 1.71

Question: Which protein stability index does the source give for FVRGDHRDNGPFDGPGGNLAHAFQ [S10G] here?
Answer: 1.3

Question: Which protein stability index does the source give for FVRGDHRDNEPFDGPGGNLAHAFQ [S10E] here?
Answer: 1.53

Question: Which protein stability index does the source give for FVRGDHRDNKPFDGPGGNLAHAFQ [S10K] here?
Answer: 2.63

Question: With FVRGDHRDNRPFDGPGGNLAHAFQ [S10R] as the variant, how does the protein stability index read?
Answer: 2.03

Question: Which protein stability index does the source give for FVRGDHRDNYPFDGPGGNLAHAFQ [S10Y] here?
Answer: 1.71

Question: For FVRGDHRDPSPFDGPGGNLAHAFQ [N9P], which protein stability index is on record?
Answer: 2.4

Question: Which protein stability index does the source give for FVRGDHRDESPFDGPGGNLAHAFQ [N9E] here?
Answer: 2.15

Question: With FVRGDHRDLSPFDGPGGNLAHAFQ [N9L] as the variant, how does the protein stability index read?
Answer: 2.31

Question: For FVRGDHRDFSPFDGPGGNLAHAFQ [N9F], which protein stability index is on record?
Answer: 3.83

Question: For FVRGDHRDASPFDGPGGNLAHAFQ [N9A], which protein stability index is on record?
Answer: 2.53

Question: For FVRGDHRDTSPFDGPGGNLAHAFQ [N9T], which protein stability index is on record?
Answer: 2.13

Question: Which protein stability index does the source give for FVRGDHRDSSPFDGPGGNLAHAFQ [N9S] here?
Answer: 2.41

Question: For FVRGDHRDNSPFDGPGGNLAIAFQ [H21I], which protein stability index is on record?
Answer: 2.7

Question: With FVRGDHRDNSPFDGPGGNLAKAFQ [H21K] as the variant, how does the protein stability index read?
Answer: 1.95

Question: Which protein stability index does the source give for FVRGDHRDNSPFDGPGGNLALAFQ [H21L] here?
Answer: 1.57

Question: Which protein stability index does the source give for FVRGDHRDNSPFDGPGGNLAGAFQ [H21G] here?
Answer: 1.81

Question: For FVRGDHRDNSPFDGPGGNLAFAFQ [H21F], which protein stability index is on record?
Answer: 2.31

Question: With FVRGDHRDNSPFDGPGGNLASAFQ [H21S] as the variant, how does the protein stability index read?
Answer: 2.2

Question: With FVRGDHRDNSPFDGPGGNLAYAFQ [H21Y] as the variant, how does the protein stability index read?
Answer: 2.91

Question: Which protein stability index does the source give for FVHGDHRDNSPFDGPGGNLAHAFQ [R3H] here?
Answer: 1.85

Question: Which protein stability index does the source give for FVNGDHRDNSPFDGPGGNLAHAFQ [R3N] here?
Answer: 2.34

Question: With FVDGDHRDNSPFDGPGGNLAHAFQ [R3D] as the variant, how does the protein stability index read?
Answer: 1.73

Question: With FVMGDHRDNSPFDGPGGNLAHAFQ [R3M] as the variant, how does the protein stability index read?
Answer: 1.57

Question: Which protein stability index does the source give for FVWGDHRDNSPFDGPGGNLAHAFQ [R3W] here?
Answer: 1.86

Question: For FVFGDHRDNSPFDGPGGNLAHAFQ [R3F], which protein stability index is on record?
Answer: 1.69

Question: With FVLGDHRDNSPFDGPGGNLAHAFQ [R3L] as the variant, how does the protein stability index read?
Answer: 2.13

Question: For FVSGDHRDNSPFDGPGGNLAHAFQ [R3S], which protein stability index is on record?
Answer: 1.99

Question: With FVRGDHRDNSPTDGPGGNLAHAFQ [F12T] as the variant, how does the protein stability index read?
Answer: 2.39

Question: For FVRGDHRDNSPYDGPGGNLAHAFQ [F12Y], which protein stability index is on record?
Answer: 2.89

Question: Which protein stability index does the source give for FVRGDHRDNSPKDGPGGNLAHAFQ [F12K] here?
Answer: 2.27

Question: Which protein stability index does the source give for FVRGDHRDNSPADGPGGNLAHAFQ [F12A] here?
Answer: 1.91

Question: With FVRGDHRDNSPDDGPGGNLAHAFQ [F12D] as the variant, how does the protein stability index read?
Answer: 2.3

Question: For FVRGDHRDNSPQDGPGGNLAHAFQ [F12Q], which protein stability index is on record?
Answer: 1.8

Question: For FVRGDHRDNSPWDGPGGNLAHAFQ [F12W], which protein stability index is on record?
Answer: 3.55

Question: For FVRGDHRDNSPGDGPGGNLAHAFQ [F12G], which protein stability index is on record?
Answer: 2.24

Question: With FVRGDHRDNSPRDGPGGNLAHAFQ [F12R] as the variant, how does the protein stability index read?
Answer: 1.84

Question: For FVRGDHRDNSPCDGPGGNLAHAFQ [F12C], which protein stability index is on record?
Answer: 2

Question: Which protein stability index does the source give for FVRGDHRDNSPEDGPGGNLAHAFQ [F12E] here?
Answer: 1.82

Question: Which protein stability index does the source give for FVRGDHRDNSPVDGPGGNLAHAFQ [F12V] here?
Answer: 1.94

Question: Which protein stability index does the source give for TVRGDHRDNSPFDGPGGNLAHAFQ [F1T] here?
Answer: 3.78

Question: With SVRGDHRDNSPFDGPGGNLAHAFQ [F1S] as the variant, how does the protein stability index read?
Answer: 3.33

Question: Which protein stability index does the source give for CVRGDHRDNSPFDGPGGNLAHAFQ [F1C] here?
Answer: 2.64

Question: For YVRGDHRDNSPFDGPGGNLAHAFQ [F1Y], which protein stability index is on record?
Answer: 1.81

Question: Which protein stability index does the source give for EVRGDHRDNSPFDGPGGNLAHAFQ [F1E] here?
Answer: 3.97

Question: For AVRGDHRDNSPFDGPGGNLAHAFQ [F1A], which protein stability index is on record?
Answer: 3.67

Question: With QVRGDHRDNSPFDGPGGNLAHAFQ [F1Q] as the variant, how does the protein stability index read?
Answer: 4.01

Question: For RVRGDHRDNSPFDGPGGNLAHAFQ [F1R], which protein stability index is on record?
Answer: 3.36

Question: With VVRGDHRDNSPFDGPGGNLAHAFQ [F1V] as the variant, how does the protein stability index read?
Answer: 2.83

Question: With FVRGDHRDNSPFDGYGGNLAHAFQ [P15Y] as the variant, how does the protein stability index read?
Answer: 2.52

Question: With FVRGDHRDNSPFDGFGGNLAHAFQ [P15F] as the variant, how does the protein stability index read?
Answer: 2.1

Question: With FVRGDHRDNSPFDGPGGNTAHAFQ [L19T] as the variant, how does the protein stability index read?
Answer: 2.08

Question: For FVRGDHRDNSPFDGPGGNNAHAFQ [L19N], which protein stability index is on record?
Answer: 1.73

Question: For FVRGDHRDNSPFDGPGGNKAHAFQ [L19K], which protein stability index is on record?
Answer: 2.25

Question: For FVRGDHRDNSPFDGPGGNPAHAFQ [L19P], which protein stability index is on record?
Answer: 1.49

Question: For FVRGDHRDNSPFDGPGGNHAHAFQ [L19H], which protein stability index is on record?
Answer: 1.39
